{"source": "paper PMC11231019", "about": "“A pH-dependent shift of redox cofactor specificity in a benzyl alcohol dehydrogenase of aromatoleum aromaticum EbN1” (Applied Microbiology and Biotechnology, 2024)", "molecules": {"B1": {"name": "BaDH (benzyl alcohol dehydrogenase) (Aromatoleum aromaticum EbN1) (protein)", "chain": "MKIQAAVTPAQGEDFTIEKVTLAPPKLNEVLVRVVATGVCHTDAVARDLGISPYPIVLGHEGSGIVEQIGENVTSLEVGDHVVMSFAHCGQCENCLTGHPTVCSRFNELNFGGRMEDGTCRLHQGDTELSTFFGQSSFGTHVVAHERNVVKVDKDVDLALLGPLGCGIQTGAGTVLNRLKPAFGTSIAVYGCGAVGLSAIMAAKIAGCQQIFAIDVHESRLQLAGELGATHVLNGKEVDVVKEIKEASMGGTHYAVESTGVPPVVRQCLHALRPLGQAAIVGVTPEMNIDVHNDLMAEGKSMIGVIEGDSVPRVFIPKLVEFFKAGKFPFDKLVKFYRFDQINQAFEDSANGIAVKPVLRLA", "notes": "full-length, C-terminal Twin-Strep-tag kept, expressed in E. coli BL21(DE3), Strep-tactin purified; Zn (catalytic) and Zn/Fe (structural)"}}, "key": {"[1]": {"target": "T1, BaDH (benzyl alcohol dehydrogenase) (Aromatoleum aromaticum, UniProt Q5P459)", "T1 construct": "gene adh; full-length, C-terminal Twin-Strep-tag kept, expressed in E. coli BL21(DE3), Strep-tactin purified; Zn (catalytic) and Zn/Fe (structural)", "T1 sequence (Q5P459 1-362)": "B1 chain", "experiment": "photometric NADH formation, […] nm; Michaelis-Menten with substrate inhibition fit", "format": "biochemical", "details": "substrate inhibition constant; NAD+, pH 8.0, 30 °C"}, "[2]": {"substrate": "NC(=O)C1=CN([C@@H]2O[C@H](COP(=O)(O)OP(=O)(O)OC[C@H]3O[C@@H](n4cnc5c(N)ncnc54)[C@H](OP(=O)(O)O)[C@@H]3O)[C@@H](O)[C@H]2O)C=CC1", "experiment": "photometric NADPH consumption; Hill fit with substrate inhibition", "format": "biochemical, Aromatoleum aromaticum", "details": "apparent, fixed benzaldehyde, pH 5.5, 30 °C, cooperative, Hill n 1.38, Kis constrained to Km, kcat called overestimated by authors, varied: cofactor", "description": "photometric NADPH consumption; Hill fit with substrate inhibition on BaDH (benzyl alcohol dehydrogenase)"}, "[3]": {"substrate": "NC(=O)c1ccc[n+]([C@@H]2O[C@H](COP(=O)(O)OP(=O)(O)OC[C@H]3O[C@@H](n4cnc5c(N)ncnc54)[C@H](O)[C@@H]3O)[C@@H](O)[C@H]2O)c1", "experiment": "photometric NADH formation; Michaelis-Menten fit", "format": "biochemical, Aromatoleum aromaticum", "details": "apparent, fixed benzyl alcohol, pH 8.0, 30 °C, varied: cofactor", "description": "photometric NADH formation; Michaelis-Menten fit on BaDH (benzyl alcohol dehydrogenase)"}, "purified protein [4]": {"substrate": "OCc1ccccc1", "experiment": "purified protein", "format": "biochemical, Aromatoleum aromaticum", "details": "apparent, oxidation with NAD+, pH 8.0, 30 °C, substrate inhibition, kcat called overestimated by authors"}, "purified protein [5]": {"substrate": "NC(=O)C1=CN([C@@H]2O[C@H](COP(=O)(O)OP(=O)(O)OC[C@H]3O[C@@H](n4cnc5c(N)ncnc54)[C@H](O)[C@@H]3O)[C@@H](O)[C@H]2O)C=CC1", "experiment": "purified protein", "format": "biochemical, Aromatoleum aromaticum", "details": "apparent, fixed benzaldehyde, pH 7.0, 30 °C, extrapolated, saturation not reached, probably underestimated per authors (text: no reliable constants), varied: cofactor"}, "[6]": {"substrate": "NC(=O)c1ccc[n+]([C@@H]2O[C@H](COP(=O)(O)OP(=O)(O)OC[C@H]3O[C@@H](n4cnc5c(N)ncnc54)[C@H](OP(=O)(O)O)[C@@H]3O)[C@@H](O)[C@H]2O)c1", "experiment": "photometric NADPH formation; Hill fit with substrate inhibition", "format": "biochemical, Aromatoleum aromaticum", "details": "apparent, fixed benzyl alcohol, pH 6.5, 30 °C, cooperative, Hill n 2.44, Kis constrained to Km, kcat called overestimated by authors, varied: cofactor", "description": "photometric NADPH formation; Hill fit with substrate inhibition on BaDH (benzyl alcohol dehydrogenase)"}, "[7]": {"substrate": "O=Cc1ccccc1", "experiment": "photometric NADH consumption; Michaelis-Menten with substrate inhibition fit", "format": "biochemical, Aromatoleum aromaticum", "details": "apparent, reduction with NADH, pH 7.0, 30 °C, Kis constrained to >= Km, kcat called overestimated by authors", "description": "photometric NADH consumption; Michaelis-Menten with substrate inhibition fit on BaDH (benzyl alcohol dehydrogenase)"}}}
{"molecule": "OCc1ccccc1", "note": "[BAlc, benzyl alcohol]", "values": [{"measurement": "Kis", "setting": "[1]", "result": 4.37, "unit": "mM"}]}
{"molecule": "B1", "values": [{"measurement": "K0.5", "setting": "[2]", "result": 3.42, "unit": "mM"}, {"measurement": "Vmax", "setting": "[2]", "result": 159, "unit": "µmol/min/mg"}, {"measurement": "kcat", "setting": "[2]", "result": 110, "unit": "s⁻¹"}, {"measurement": "kcat/Km", "setting": "[2]", "result": 32000, "unit": "M⁻¹ s⁻¹"}, {"measurement": "Km", "setting": "[3]", "result": 1670, "unit": "µM"}, {"measurement": "Vmax", "setting": "[3]", "result": 84.2, "unit": "µmol/min/mg"}, {"measurement": "kcat", "setting": "[3]", "result": 58.4, "unit": "s⁻¹"}, {"measurement": "kcat/Km", "setting": "[3]", "result": 35000, "unit": "M⁻¹ s⁻¹"}, {"measurement": "Km", "setting": "purified protein [4]", "result": 3620, "unit": "µM"}, {"measurement": "Vmax", "setting": "purified protein [4]", "result": 410, "unit": "µmol/min/mg"}, {"measurement": "kcat", "setting": "purified protein [4]", "result": 693, "unit": "s⁻¹"}, {"measurement": "kcat/Km", "setting": "purified protein [4]", "result": 191000, "unit": "M⁻¹ s⁻¹"}, {"measurement": "Km", "setting": "purified protein [5]", "result": 3690, "unit": "µM"}, {"measurement": "Vmax", "setting": "purified protein [5]", "result": 320, "unit": "µmol/min/mg"}, {"measurement": "kcat", "setting": "purified protein [5]", "result": 222, "unit": "s⁻¹"}, {"measurement": "kcat/Km", "setting": "purified protein [5]", "result": 60000, "unit": "M⁻¹ s⁻¹"}, {"measurement": "K0.5", "setting": "[6]", "result": 2.39, "unit": "mM"}, {"measurement": "Vmax", "setting": "[6]", "result": 54.1, "unit": "µmol/min/mg"}, {"measurement": "kcat", "setting": "[6]", "result": 37.5, "unit": "s⁻¹"}, {"measurement": "kcat/Km", "setting": "[6]", "result": 16000, "unit": "M⁻¹ s⁻¹"}, {"measurement": "Km", "setting": "[7]", "result": 1780, "unit": "µM"}, {"measurement": "Vmax", "setting": "[7]", "result": 345, "unit": "µmol/min/mg"}, {"measurement": "kcat", "setting": "[7]", "result": 239, "unit": "s⁻¹"}, {"measurement": "kcat/Km", "setting": "[7]", "result": 134000, "unit": "M⁻¹ s⁻¹"}]}
